Patent publication US20230416313A1 (published 2023)
One block for each binder: values may come before it.

Key:
[1] = biological target: T1, recombinant human complement factor H (CFH), isolated from moss (human, UniProt P08603 19-1231); assay: BLI; steady state
T1 chain: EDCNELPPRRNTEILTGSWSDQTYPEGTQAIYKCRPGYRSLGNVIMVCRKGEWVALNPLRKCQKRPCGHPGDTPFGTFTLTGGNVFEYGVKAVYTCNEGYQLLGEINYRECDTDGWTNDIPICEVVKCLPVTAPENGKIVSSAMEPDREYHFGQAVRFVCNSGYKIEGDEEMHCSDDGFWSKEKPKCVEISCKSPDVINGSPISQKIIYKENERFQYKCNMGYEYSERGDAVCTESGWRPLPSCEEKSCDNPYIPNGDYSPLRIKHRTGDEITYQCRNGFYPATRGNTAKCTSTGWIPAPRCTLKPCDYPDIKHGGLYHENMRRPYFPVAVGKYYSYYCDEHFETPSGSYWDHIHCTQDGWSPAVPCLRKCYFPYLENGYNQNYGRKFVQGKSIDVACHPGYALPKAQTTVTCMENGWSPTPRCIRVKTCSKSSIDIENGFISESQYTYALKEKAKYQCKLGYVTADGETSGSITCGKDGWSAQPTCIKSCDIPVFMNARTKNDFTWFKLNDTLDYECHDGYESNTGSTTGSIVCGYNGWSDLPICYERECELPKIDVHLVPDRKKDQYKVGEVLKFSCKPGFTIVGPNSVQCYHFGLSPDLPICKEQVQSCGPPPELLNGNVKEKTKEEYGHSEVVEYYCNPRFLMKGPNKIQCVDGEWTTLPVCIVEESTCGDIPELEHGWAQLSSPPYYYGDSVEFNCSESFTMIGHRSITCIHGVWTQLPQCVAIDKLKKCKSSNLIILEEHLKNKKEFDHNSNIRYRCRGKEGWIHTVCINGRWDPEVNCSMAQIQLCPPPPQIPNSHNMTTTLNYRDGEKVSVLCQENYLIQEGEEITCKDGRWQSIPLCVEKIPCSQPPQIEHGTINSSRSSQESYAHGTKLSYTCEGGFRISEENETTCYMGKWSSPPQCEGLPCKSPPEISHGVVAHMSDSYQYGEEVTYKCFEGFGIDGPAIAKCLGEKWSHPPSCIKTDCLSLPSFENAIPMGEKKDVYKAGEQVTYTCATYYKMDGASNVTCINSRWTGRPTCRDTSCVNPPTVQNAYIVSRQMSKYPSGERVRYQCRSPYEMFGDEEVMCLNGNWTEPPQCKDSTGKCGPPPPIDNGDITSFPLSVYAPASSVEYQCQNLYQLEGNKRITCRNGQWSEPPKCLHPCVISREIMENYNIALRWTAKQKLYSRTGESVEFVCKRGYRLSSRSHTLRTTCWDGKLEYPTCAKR

[2] = biological target: T1, recombinant human complement factor H …; assay: SPR; steady state

Kd [1]: 120 nM
B1: CFH binding protein of SEQ ID NO: 5 (CID 209447) (designed binder)
chain: NAAEADDAQVSAAMEIIMLPNLTLEQAHSFIESLYRDPSVSKEVLGEAQKLNDSQAPK

Kd [2]: 35 nM
B2: 209202 (protein)
chain: NAADLDEAQISAIFEIMDLPNLTWQQQEWFIDSLSDDPSVSKEVLGEAQKLNDSQAPK

Kd [1]: 421 nM
B3: CFH binding protein of SEQ ID NO: 20 (CID 209864) (designed binder)
chain: IAAKFDEAQQAAFYEILHLPNLTELQRNHFIQTLRDDPSVSLWVLGLAQLLNDSQAPKIAAKFDEAQQHAFYTILHLENLTEEQRNAFIQSLRDDPSVSLEVLGEAIKLNISQAPK
